In patent US20210041458A1, “Lectin Assay For Assessing Glycoforms As An Early Marker In Disease” (Baruch S. Blumberg Institute, priority 2009, published 2021):
“Also recorded” adds a separate entry of the source.

Experiments:
[1] = Selectivity for fucose linkage; assay type: binding
IgG0 ligand [2] = assay: Competition (indirect) ELISA: unbiotinylated AAL proteins against biotinylated AAL binding to IgG0 in serum; set-up: species or system human; settings: for decrease in signal output versus control: compared with commercial (Vector) AAL
Experimental: 96 well plates are coated with sodium periodate (NaIO4) treated mouse IgG (1.0 ug/well). 3 ul of serum from a patient with cirrhosis (Gish 342) or serum from normal donors (Sigma) were diluted to 100 ul and added to antibody coated wells. Plates are washed and then incubated at room temperature for 30 minutes/shaking with equivalent amounts of either unbiotinylated commercial (Vector) AAL, unbiotinylated recombinant 10×-His tagged (rAAL 10×), or unbiotinylated recombinant 10×-His tagged mutant AAL (rAAL N129Q, N224Q)). Equivalent amounts of biotinylated AAL was then added to each well and incubated for 1 hour at room temperature/shaking. Plates are washed and incubated with streptavidin-800-IRDye as previously described. Plates are washed and fluorescence quantified using a LiCor Odyssey machine. Control samples measured biotinylated AAL binding to IgG0 in the absence of unbiotinylated AAL.
Competition experiments provide an indirect ELISA for measuring the ability of unbiotinylated commercial (Vector) and unbiotinylated rAAL proteins to interfere with binding of biotinylated AAL to the IgG0 ligand. It is a qualitative indication of the relative affinities of the untagged AAL proteins for the IgG0 ligand.

[3] = multivalent; compared to other lectins; cited from earlier work
IgG0 ligand [4] = assay: IgG0 ligand binding to AAL proteins coated on nickel NTA plates, fluorescence readout; set-up: species or system human; settings: FIG. 2
Experimental: Equal amounts of recombinant AAL (wild type or mutants) containing 10× Histidine tags were coated to nickel NT A plates and incubated with increasing amounts of IgG0 ligand (X axis). Un tagged, commercially purchased AAL (AAL-V) was also coated to nickel NT A plates or on high affinity binding ELISA plates (AAL-Vc) and incubated with increasing amounts of IgG0 ligand. Plates were washed and incubated with fluorescently tagged anti-human lgG, washed and read in a fluorescence detector. Increasing relative fluorescence indicates higher binding affinity.

[5] = Surface plasmon resonance, tryptophan fluorescence and enzyme linked lectin assays; assay type: binding; settings: rAAL from bacteria, isolated by nickel affinity chromatography
Experimental: Quantitative equilibrium binding of mutant and wild-type AAL for the selection ligand and other L-fucopyranosyl oligosaccharides are determined by BIAcore analysis and enzyme linked lectin assays (Oiausson et al).

[6] = serum from a cirrhotic patient (Gish 342), FIG. 3

B1: N224Q: mutant Aleuria aurantia lectin with N224 changed to glutamine (protein, UniProt P18891 2-313, looked up, variant N224Q)
Fucose-specific lectin: PTEFLYTSKIAAISWAATGGRQQRVYFQDLNGKIREAQRGGDNPWTGGSSQNVIGEAKLFSPLAAVTWKSAQGIQIRVYCVNKDNILSEFVYDGSKWITGQLGSVGVKVGSNSKLAALQWGGSESAPPNIRVYYQKSNGSGSSIHEYVWSGKWTAGASFGSTVPGTGIGATAIGPGRLRIYYQATDNKIREHCWDSNSWYVGGFSASASAGVSIAAISWGSTPQIRVYWQKGREELYEAAYGGSWNTPGQIKDASRPTPSLPDTFIAANSSGNIDISVFFQASGVSLQQWQWISGKGWSIGAVVPTGTPAGW
modifications: 10xHis tag
notes: mutant Aleuria aurantia lectin with N224 changed to glutamine
selectivity for the 1-6 linkage against outerarm linkages [1]: more selective for the 1-6 linkage than outerarm

B2: rAAL 10×: unbiotinylated recombinant 10×-His tagged wild-type AAL (protein, UniProt P18891 2-313, looked up)
Fucose-specific lectin: PTEFLYTSKIAAISWAATGGRQQRVYFQDLNGKIREAQRGGDNPWTGGSSQNVIGEAKLFSPLAAVTWKSAQGIQIRVYCVNKDNILSEFVYDGSKWITGQLGSVGVKVGSNSKLAALQWGGSESAPPNIRVYYQKSNGSGSSIHEYVWSGKWTAGASFGSTVPGTGIGATAIGPGRLRIYYQATDNKIREHCWDSNSWYVGGFSASASAGVSIAAISWGSTPNIRVYWQKGREELYEAAYGGSWNTPGQIKDASRPTPSLPDTFIAANSSGNIDISVFFQASGVSLQQWQWISGKGWSIGAVVPTGTPAGW
modifications: 10xHis tag
notes: unbiotinylated recombinant 10×-His tagged wild-type AAL
decrease in signal output versus control (IgG0 ligand [2]; [6]): greater decreases in signal output versus control

B3: AAL: 312 amino acid lectin with five binding sites for L-fucose or L-fucose-linked oligosaccharides (protein, UniProt P18891 2-313, looked up)
Fucose-specific lectin: PTEFLYTSKIAAISWAATGGRQQRVYFQDLNGKIREAQRGGDNPWTGGSSQNVIGEAKLFSPLAAVTWKSAQGIQIRVYCVNKDNILSEFVYDGSKWITGQLGSVGVKVGSNSKLAALQWGGSESAPPNIRVYYQKSNGSGSSIHEYVWSGKWTAGASFGSTVPGTGIGATAIGPGRLRIYYQATDNKIREHCWDSNSWYVGGFSASASAGVSIAAISWGSTPNIRVYWQKGREELYEAAYGGSWNTPGQIKDASRPTPSLPDTFIAANSSGNIDISVFFQASGVSLQQWQWISGKGWSIGAVVPTGTPAGW
binding affinity for carbohydrate ligands [3]: micromolar; also recorded: micrormolar

B4: AAL M1(N129Q): recombinant 10× His-tagged mutant Aleuria aurantia lectin with N129 changed to glutamine (protein, UniProt P18891 2-313, looked up, variant N129Q)
Fucose-specific lectin: PTEFLYTSKIAAISWAATGGRQQRVYFQDLNGKIREAQRGGDNPWTGGSSQNVIGEAKLFSPLAAVTWKSAQGIQIRVYCVNKDNILSEFVYDGSKWITGQLGSVGVKVGSNSKLAALQWGGSESAPPQIRVYYQKSNGSGSSIHEYVWSGKWTAGASFGSTVPGTGIGATAIGPGRLRIYYQATDNKIREHCWDSNSWYVGGFSASASAGVSIAAISWGSTPNIRVYWQKGREELYEAAYGGSWNTPGQIKDASRPTPSLPDTFIAANSSGNIDISVFFQASGVSLQQWQWISGKGWSIGAVVPTGTPAGW
modifications: 10xHis tag
notes: recombinant 10× His-tagged mutant Aleuria aurantia lectin with N129 changed to glutamine
Limit of Detection (IgG0 ligand [4]; IgG0 ligand): 10 ng/mL | improvement of the Limit of Detection (IgG0 ligand [4]; IgG0 ligand): 10-100 fold | signal to noise ratio (IgG0 ligand [4]; increasing IgG0 ligand): highest signal to noise ratio

B5: rAAL (N129Q, N224Q): recombinant 10×-His tagged mutant AAL with both N129Q and N224Q (protein, UniProt P18891 2-313, looked up, variant N129Q N224Q)
Fucose-specific lectin: PTEFLYTSKIAAISWAATGGRQQRVYFQDLNGKIREAQRGGDNPWTGGSSQNVIGEAKLFSPLAAVTWKSAQGIQIRVYCVNKDNILSEFVYDGSKWITGQLGSVGVKVGSNSKLAALQWGGSESAPPQIRVYYQKSNGSGSSIHEYVWSGKWTAGASFGSTVPGTGIGATAIGPGRLRIYYQATDNKIREHCWDSNSWYVGGFSASASAGVSIAAISWGSTPQIRVYWQKGREELYEAAYGGSWNTPGQIKDASRPTPSLPDTFIAANSSGNIDISVFFQASGVSLQQWQWISGKGWSIGAVVPTGTPAGW
modifications: 10xHis tag
notes: recombinant 10×-His tagged mutant AAL with both N129Q and N224Q
decrease in signal output versus control (IgG0 ligand [2]; [6]): greater decreases in signal output versus control

B6: commercial (Vector) AAL: untagged, commercially purchased AAL (Vector), eluted with L-fucose in manufacture (protein, UniProt P18891 2-313, looked up)
Fucose-specific lectin: PTEFLYTSKIAAISWAATGGRQQRVYFQDLNGKIREAQRGGDNPWTGGSSQNVIGEAKLFSPLAAVTWKSAQGIQIRVYCVNKDNILSEFVYDGSKWITGQLGSVGVKVGSNSKLAALQWGGSESAPPNIRVYYQKSNGSGSSIHEYVWSGKWTAGASFGSTVPGTGIGATAIGPGRLRIYYQATDNKIREHCWDSNSWYVGGFSASASAGVSIAAISWGSTPNIRVYWQKGREELYEAAYGGSWNTPGQIKDASRPTPSLPDTFIAANSSGNIDISVFFQASGVSLQQWQWISGKGWSIGAVVPTGTPAGW
signal output (IgG0 ligand [2]; serum from a cirrhotic patient (Gish 342), control ~35, FIG. 3): ~20

B7: rAAL: recombinant AAL produced in and isolated from bacteria using nickel affinity chromatography (protein, UniProt P18891 2-313, looked up)
Fucose-specific lectin: PTEFLYTSKIAAISWAATGGRQQRVYFQDLNGKIREAQRGGDNPWTGGSSQNVIGEAKLFSPLAAVTWKSAQGIQIRVYCVNKDNILSEFVYDGSKWITGQLGSVGVKVGSNSKLAALQWGGSESAPPNIRVYYQKSNGSGSSIHEYVWSGKWTAGASFGSTVPGTGIGATAIGPGRLRIYYQATDNKIREHCWDSNSWYVGGFSASASAGVSIAAISWGSTPNIRVYWQKGREELYEAAYGGSWNTPGQIKDASRPTPSLPDTFIAANSSGNIDISVFFQASGVSLQQWQWISGKGWSIGAVVPTGTPAGW
modifications: His tag
affinity for the IgG0 ligand compared with commercially available AAL (IgG0 ligand [2]; Example 1): higher affinity | affinity in cirrhotic patients compared with controls (IgG0 ligand [2]; serum samples, FIG. 3): significantly higher affinity | binding affinities for fucosylated oligosaccharides compared with commercially prepared AAL [5]: substantially higher binding affinities
